This is an account of results in patent US20150056232A1.

This assay has as its target TLR5.

“FliC180 protein of S. Typhimurium (Phase I FliC flagellar antigen with the ΔfliC180 deletion) (from UniProt P06179) (ligand)” showed an NF-κB production (% higher than the FliC+ strain) of 50.
